US20230349919A1

Legend:
[1] = molecular target: Der f 1 (house dust mite) (UniProt P16311); assay: barcoded antigen sequencing of single IgE PCs with trapped IgE
[2] = molecular target: Der p 1 (house dust mite) (UniProt P08176); assay: as above
[3] = molecular target: Der p 2 (house dust mite) (UniProt P49278); assay: as above
Ole e 1 (olive) [4] = molecular target: Ole e 1 (olive) (UniProt P19963); assay: as above
[5] = molecular target: Der f 1 (house dust mite) (UniProt P16311); assay: barcoded antigen sequencing of single IgE PCs with trapped IgE [cont.]
[6] = molecular target: Der p 1 (house dust mite) (UniProt P08176); assay: as above
[7] = molecular target: Der p 2 (house dust mite) (UniProt P49278); assay: as above
Ole e 1 (olive) [8] = molecular target: Ole e 1 (olive) (UniProt P19963); assay: as above
[9] = molecular target: Der f 1 (house dust mite) (UniProt P16311); assay: antigen specificity score against Ole e 1 from barcode counts of single IgE PCs [cont.]
[10] = molecular target: Der p 1 (house dust mite) (UniProt P08176); assay: as above
[11] = molecular target: Der p 2 (house dust mite) (UniProt P49278); assay: as above
[12] = molecular target: Der f 1 (house dust mite) (UniProt P16311); assay: centered log-ratio of barcode count
[13] = molecular target: Der p 1 (house dust mite) (UniProt P08176); assay: centered log-ratio of barcode count
[14] = molecular target: Der f 1 (house dust mite) (UniProt P16311); assay: barcoded-antigen count on source cell
[15] = molecular target: Der p 1 (house dust mite) (UniProt P08176); assay: barcoded-antigen count on source cell
[16] = molecular target: Der f 1 (house dust mite) (UniProt P16311); assay: barcode rank score against control Ole e 1
[17] = molecular target: Der p 1 (house dust mite) (UniProt P08176); assay: barcode rank score against control Ole e 1

Der p 1 (house dust mite), sequence (P08176 99-320 limits assumed): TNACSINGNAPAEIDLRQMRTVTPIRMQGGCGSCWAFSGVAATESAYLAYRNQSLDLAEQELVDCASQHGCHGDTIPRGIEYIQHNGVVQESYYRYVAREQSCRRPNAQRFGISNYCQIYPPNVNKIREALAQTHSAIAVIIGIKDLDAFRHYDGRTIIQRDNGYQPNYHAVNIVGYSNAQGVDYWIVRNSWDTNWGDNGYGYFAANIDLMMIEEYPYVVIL
Ole e 1 (olive), sequence (P19963 whole entry): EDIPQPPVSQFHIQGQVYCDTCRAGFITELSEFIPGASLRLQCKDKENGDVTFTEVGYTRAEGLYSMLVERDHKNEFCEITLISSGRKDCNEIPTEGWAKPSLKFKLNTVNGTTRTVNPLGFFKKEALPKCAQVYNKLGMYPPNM
Der f 1 (house dust mite), sequence (P16311 99-321 limits assumed): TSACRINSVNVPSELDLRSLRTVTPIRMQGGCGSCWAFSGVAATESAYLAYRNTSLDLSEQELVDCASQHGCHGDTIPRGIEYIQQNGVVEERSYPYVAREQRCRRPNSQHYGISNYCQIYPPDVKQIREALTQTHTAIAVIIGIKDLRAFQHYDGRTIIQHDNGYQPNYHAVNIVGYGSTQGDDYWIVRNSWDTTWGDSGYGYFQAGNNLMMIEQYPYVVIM
Der p 2 (house dust mite), sequence (P49278 18-146 limits assumed): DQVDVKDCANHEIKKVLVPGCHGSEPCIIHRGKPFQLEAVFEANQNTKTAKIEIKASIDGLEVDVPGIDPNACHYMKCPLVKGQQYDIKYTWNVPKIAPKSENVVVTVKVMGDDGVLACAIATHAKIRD

Row | Raw Antigen Barcode Count [1] | Raw Antigen Barcode Count [2] | Raw Antigen Barcode Count [3] | Raw Antigen Barcode Count (Ole e 1 (olive) [4]) | Normalized Barcode Count [5] | Normalized Barcode Count [6] | Normalized Barcode Count [7] | Normalized Barcode Count (Ole e 1 (olive) [8]) | Antigen Score [9] | Antigen Score [10] | Antigen Score [11] | Binder | also measured
1 |  |  |  | 4 |  |  |  | 0.826 |  |  |  | Candidate ID 21 (antibody, V domains shown) VH: QVQLQQSGPELVKPGASVKISCKAPGNAFSYSWMNWVKQRPGKGLEWVGRIYPGDGDTNYNGKFMGKATLTADKSSNTAYIQLSSLTSEDSAVYFCARSGGGTLYWYFDVWGTGTTVTVSS VL: DIVMTQSPSSLALSVGQKVTMNCRSSQSLLNSFNQKNYLAWFQQKPGQSPRLLIYFASTRESGVPDRFIGSGSGTDFTLTISSVQAEDLADYFCQQHYNTPLTFGAGTTLELK | 
2 |  |  |  | 3 |  |  |  | 0.603 |  |  |  | Candidate ID 16 (antibody, V domains shown) VH: EVHLQQSGPDLVKPGASVMISCQASGYSFTAYYINWVKQSPEKSLEWIGEINPGSGGVIYNRKFEAKATLIVDKSSNTAFMLLTRLTSEDSAIYYCARKGFYQFDYWGQGTTLTVSS VL: SVVMTQIPKFLVVSAGDRVTITCKASQSVNDGVFWYQQKTGQSPKLVIYHTSNRYTGVSDRFTGSGYGTEFTFTISAVQSEDLAIYFCQQDYTSPLTFGGGTRLEIK | 

Continued, binder first:

Row | Binder | Raw Antigen Barcode Count [1] | Raw Antigen Barcode Count [2] | Raw Antigen Barcode Count [3] | Raw Antigen Barcode Count (Ole e 1 (olive) [4]) | Normalized Barcode Count [5] | Normalized Barcode Count [6] | Normalized Barcode Count [7] | Normalized Barcode Count (Ole e 1 (olive) [8]) | Antigen Score [9] | Antigen Score [10] | Antigen Score [11] | also measured
3 | Candidate ID 9 (antibody, V domains shown) VH: EVQLQQSGPELVKPGASVKISCKASGYTFTDYYMNWVKQSHGKSLEWIGDINPNNGGTSYNQKFKGKATLTVDKSSSTAYMELRSLTSEDSAVYYCAYGPPRGPPWFAYWGQGTLVTVSA VL: DIVLTQSPASLAVSLGQRATISCRASKSVSTSGYSYMHWYQQKPGQPPKLLIYLASNLESGVPARFSGSGSGTDFTLNIHPVEEEDAATYYCQHSRELPWTFGGGTKLEIK | 15 | 16 | 46 | 1 | 0.82 | 0.981 | 1.62 | 0.029 | 0.765 | 0.775 | 0.858 | 
4 | IgE mAb 13_2 (antibody, V domains shown) VH: EVQLQQSGPELVKPGASVKISCKASGYTFTDYYMNWVKQSHGKSLEWIGDINPNNGGTSYNQKFKGKATLTVDKSSSTAYMELRSLTSEDSAVYYCAYGPPRGPPWFAYWGQGTLVTVSA VL: DIVLTQSPASLAVSLGQRATISCRASKSVSTSGYSYMHWYQQKPGQPPKLLIYLASNLESGVPARFSGSGSGTDFTLNIHPVEEEDAATYYCQHSRELPWTFGGGTKLEIK |  |  |  |  |  |  |  |  |  |  |  | Derf1 ab clr [12]: 0.82; Derp1 ab clr [13]: 0.981; Derf1 ab raw [14]: 15 counts; Derp1 ab raw [15]: 16 counts; Derf1 ab rank [16]: 0.765; Derp1 ab rank [17]: 0.775
5 | Candidate ID 13 (antibody, V domains shown) VH: QAYLQQSGAELVRPGASVKMSCKASGYTFISYNMHWVKQTRRQGLEWIGAIYPGNGDTSYNQKFKGKATLTVDKSSSTAYMQLSSLTSEDSAVYFCARWDYYGSSYGAYWGQGTLVTVSA VL: DIQMTQSPASLSVSVGETVTITCRASENIYSNLAWYQQKQGKSPQLLVYAATNLADGVPSRFSGSGSGTQYSLKINSLQSEDFGSYYCQHFWGTPWTFGGGTKLEIK |  |  |  | 1 |  |  |  | -0.434 |  |  |  | 
6 | Candidate ID 7 (antibody, V domains shown) VH: QVLLKESGPGLVAPSQSLSITCTVSGFSLTSYGVSWVRQPPGKGLEWLGVIWGDGNTDYHSALISRLSIRKDNSKSQVFLKLNSLQTDDTATYYCAIGSPFAYWGQGTLVTVSA VL: DVLMTQTPLSLPVSLGDQVSISCRSSQNIVHSTGNTYLEWYLQKPGQSPKLLIFKVSNRLSGVPDRFSGSGSGTDFTLNISRVEAADLGIYSCFQGSHVPFTFGSGTKLEIK | 32 | 29 | 22 | 0 | 1.18 | 0.862 | 0.655 | -1.13 | 0.97 | 0.89 | 0.837 | 
